Test results reported in publication PMC13418256.

Target: human TLR5 (human) (UniProt O60602)
Chain of UniProt O60602 (O60602 21-858): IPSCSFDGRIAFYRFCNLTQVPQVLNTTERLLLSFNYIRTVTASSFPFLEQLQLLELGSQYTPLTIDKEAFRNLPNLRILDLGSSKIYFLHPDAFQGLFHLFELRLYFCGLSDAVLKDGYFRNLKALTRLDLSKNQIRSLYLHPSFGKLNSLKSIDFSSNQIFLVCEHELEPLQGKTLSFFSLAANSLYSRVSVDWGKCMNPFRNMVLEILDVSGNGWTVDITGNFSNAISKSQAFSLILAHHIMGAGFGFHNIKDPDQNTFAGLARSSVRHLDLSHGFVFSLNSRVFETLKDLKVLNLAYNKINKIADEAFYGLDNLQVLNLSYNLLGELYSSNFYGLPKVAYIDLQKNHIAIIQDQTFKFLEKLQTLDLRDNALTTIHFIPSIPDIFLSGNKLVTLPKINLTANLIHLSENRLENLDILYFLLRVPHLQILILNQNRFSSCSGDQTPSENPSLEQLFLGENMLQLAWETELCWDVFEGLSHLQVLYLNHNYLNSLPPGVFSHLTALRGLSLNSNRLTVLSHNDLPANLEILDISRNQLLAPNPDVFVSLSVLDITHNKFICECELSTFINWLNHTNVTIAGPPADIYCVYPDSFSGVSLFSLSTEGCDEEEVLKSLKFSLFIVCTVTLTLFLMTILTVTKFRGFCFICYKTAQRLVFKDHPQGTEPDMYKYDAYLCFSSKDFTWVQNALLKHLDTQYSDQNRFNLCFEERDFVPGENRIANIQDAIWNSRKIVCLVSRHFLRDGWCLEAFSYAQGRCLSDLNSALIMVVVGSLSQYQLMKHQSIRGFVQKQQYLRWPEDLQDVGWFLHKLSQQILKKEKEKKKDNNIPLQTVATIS

Enterobacter sp. BIDMC93 host-encoded flagellin FliCH (natural protein)
TLR5-driven NF-κB activation (SEAP colorimetric reporter) in HEK293T-Blue-hTLR5 cells stimulated with an Ent strain expressing only FliCH (ΔfliCP-tldR-gRNA), against the WT lysogenic strain (fold of the WT lysogenic strain): 2
